Data from patent US20230024933.

How the values were obtained:
[1] = test system: T1, phosphotyrosine substrate peptide ENDpYINASL
T1 sequence: ENDYINASL

[2] = molecular target: histone γH2A.X^pY142, endogenous in primary murine fibroblast cultures (UniProt P27661)
[3] = test system: T2, phosphoserine substrate peptide RRApSVA
T2 sequence: RRASVA

| Substance | activity to dephosphorylate peptide ENDpYINASL [1] | γH2A.X^pY142 foci per nucleus after NCS exposure [2] | serine phosphatase activity (dephosphorylation assay) [3] |
| --- | --- | --- | --- |
| mutant EYA1C to which exon 10 had been added (EYA1C::e10) | overexpression of EYA1C::e10 phenocopied dephosphorylating efficacy and fibroblast accumulation of EYA1A | EYA1C containing exon 10 (EYA1C::e10) phenocopied EYA1A with regard to premature γH2A.X^pY142 dephosphorylation |  |
| EYA1 isoform C (human splice variant EYA1C, exon 10 skipped) |  |  | dephosphorylation assays using the synthetic serine phosphatase substrate RRApSVA demonstrated superior serine phosphatase activity |
